Molecular target: T1, C5aR^R175V/Y258V (Homo sapiens, UniProt P21730, R175V/Y258V)
T1 construct: Flag (N); His8 (C); made in house; host or cells: HEK-293S cells (BacMam baculovirus)
T1 sequence (P21730 1-350 R175V/Y258V): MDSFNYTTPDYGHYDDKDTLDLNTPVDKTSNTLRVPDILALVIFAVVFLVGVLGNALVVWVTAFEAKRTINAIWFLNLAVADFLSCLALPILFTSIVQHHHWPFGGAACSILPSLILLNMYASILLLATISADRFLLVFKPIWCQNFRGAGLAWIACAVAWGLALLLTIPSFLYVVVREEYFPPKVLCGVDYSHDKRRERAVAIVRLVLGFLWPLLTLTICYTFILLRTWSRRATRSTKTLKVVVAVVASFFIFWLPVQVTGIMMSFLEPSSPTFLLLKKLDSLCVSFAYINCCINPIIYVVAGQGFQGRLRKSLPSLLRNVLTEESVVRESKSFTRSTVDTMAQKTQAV
Assay: 35S-GTPγS binding assay, R175V/Y258V mutant
Assay type: biochemical
Conditions: increased concentration of C5a, Fig. S7
Experimental: Mutant variants (D282A, D282N, and R175V/Y258V) were generated based on the wtC5aR construct and fully sequenced. Mutant variants were expressed following the same method as for wtC5aR except for some modifications. HEK-293S cells expressing each mutant were pelleted by centrifugation and resuspended in 20 ml buffer containing 20 mM HEPES pH 7.5, 100 mM NaCl, 0.2 μg ml^−1 leupeptin, and 150 μg ml^−1 benzamidine. After 20 min incubation at 25 °C, 20 ml 2X solubilization buffer containing 20 mM HEPES pH 7.5, 100 mM NaCl, 1% dodecyl-maltoside (DDM), 0.2% cholesterol hemisuccinate (CHS), 20% glycerol, 0.2 μg ml^−1 leupeptin, 150 μg ml^−1 benzamidine, and 5 U Salt Active Nuclease (Sigma) was added. Cell membranes were solubilized for 1.5 h at 4 °C. […]
For the ^35S-GTPγS binding assays, the membrane of HEK293S GnTI^− cells expressing wtC5aR (~200 µg ml^−1) or mutant variants was incubated with 200 nM purified Gi protein for 30 min on ice in buffer containing 20 mM HEPES pH 7.5, 100 mM NaCl, 5 mM MgCl2, 3 μg ml^−1 BSA, 0.1 μM TCEP, and 5 μM GDP to get the receptor and Gi complex. […] The radiation of bound ^35S-GTPγS was measured on a Beckman LS6500 scintillation counter to determine the binding of ^35S-GTPγS to Gi induced by C5aR activation. […]

B1: C5a: C5a, a large 74-amino acid glycoprotein; endogenous ligand of C5aR (His6-tag at N-terminal end for AFM tips) (protein)
chain: TLQKKIEEIAAKYKHSVVKKCCYDGACVNNDETCEQRAARISLGPRCIKAFTECCVVASQLRANISHKDMQLGR
modifications: left off: His6, N-terminal, kept
Gi-protein activation vs C5aR^WT: strong reduction in the Gi-protein activation

From article PMC7749166 (Communications Biology, 2020)
